One assay deals with GBM tissue. Particulars: cited from earlier work.
The target in assay [1] is T1, proteolytically cleaved extracellular fragments of PTPμ (Homo sapiens, UniProt P28827).
T1 construct: from tissue; host or cells: formalin-fixed, paraffin-embedded human glioma patient tumor tissue (TMAs and slides)
T1 sequence (P28827 21-742 limits assumed): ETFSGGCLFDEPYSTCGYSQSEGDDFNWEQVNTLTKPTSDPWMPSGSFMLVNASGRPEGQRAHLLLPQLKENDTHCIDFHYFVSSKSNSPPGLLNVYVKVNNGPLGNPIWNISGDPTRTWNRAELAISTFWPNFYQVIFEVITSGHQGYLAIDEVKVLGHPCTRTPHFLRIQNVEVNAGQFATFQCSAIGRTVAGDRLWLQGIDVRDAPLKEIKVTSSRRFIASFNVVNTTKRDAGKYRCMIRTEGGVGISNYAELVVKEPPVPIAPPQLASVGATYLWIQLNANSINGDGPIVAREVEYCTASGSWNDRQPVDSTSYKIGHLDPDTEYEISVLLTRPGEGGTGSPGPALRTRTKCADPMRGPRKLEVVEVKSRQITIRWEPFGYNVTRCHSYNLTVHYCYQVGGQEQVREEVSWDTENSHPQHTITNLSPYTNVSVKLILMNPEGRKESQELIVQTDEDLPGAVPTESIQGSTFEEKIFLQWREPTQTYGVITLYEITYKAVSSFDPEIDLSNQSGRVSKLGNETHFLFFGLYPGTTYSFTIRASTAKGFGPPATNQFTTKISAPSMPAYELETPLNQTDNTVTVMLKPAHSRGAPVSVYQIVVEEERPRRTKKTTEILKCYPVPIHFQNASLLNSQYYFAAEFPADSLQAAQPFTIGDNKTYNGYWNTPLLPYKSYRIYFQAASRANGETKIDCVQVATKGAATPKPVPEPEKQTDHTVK
The assay is described as follows: SBK4-TR staining of human glioma tissue microarrays and slides. Type of assay: binding. From the text: The SBK4 peptide used for immunohistochemistry was synthesized as described. The N-terminal glycine of SBK4 peptide was coupled to Texas Red (TR; Molecular Probes Inc, Eugene Oreg.) as described to make the fluorescent agent. Anti-IDH1 R132H Monoclonal Antibody clone H09 (American Research Products [Dianova GmbH], Waltham, Mass.) reacts specifically with the isocitrate dehydrogenase 1 (IDH1) R132H point mutation in tissue sections from formalin-fixed brain tumor specimens.
Patient tumor samples were obtained, formalin-fixed, and paraffin-embedded for analysis. Some samples were incorporated into tissue microarrays (TMAs) and some samples were placed on individual slides. Together, these TMAs and slides represented samples from 94 glioma patients (25 adolescent and young adult and 69 adult) with astrocytomas (n=12), oligodendroglioma (n=14), oligoastrocytoma (n=7), and GBM (n=61). Tissue staining with SBK4-TR has been described. […] Antibody binding was detected using MACH4 horseradish peroxidase (Biocare, Pacheco, Calif.) and diaminobenzidine was used as chromogenic substrate. […]
Tissue staining intensity for both PTPμ and IDH1 biomarkers was quantified by blinded observers. […] For IDH1, samples were scored as either positive for the mutation or negative as it is done clinically.

For another assay, the target named is T2, PTPμ biomarker (Homo sapiens, UniProt P28827).
T2 construct: from tissue; host or cells: formalin-fixed, paraffin-embedded human gynecologic cancer and normal tissue, and patient-derived xenograft sections
The assay is described as follows: SBK4-TR staining of human gynecologic cancer, normal and PDX tissue (Image J quantification). Type of assay: binding. From the text:
The SBK4 peptide used for tissue staining was synthesized as described. The N-terminal glycine of SBK4 peptide was coupled to Texas Red (TR; Molecular Probes Inc, Eugene, Oreg., USA) as described to make the fluorescent agent. Anti-p53 Monoclonal or Ki-67 antibodies were used to counterstain tissue sections, to indicate nuclear staining of p53 typical in high-grade serous ovarian carcinoma.
All samples used for this study were obtained from the Difeo and Avril labs. The Avril group generated tissue microarrays of several gynecologic cancers (TMAs) to facilitate screening a large number of patient biopsy tissues. The Difeo lab generated TMAs that included sections from patient derived xenografts (PDXs) matched to original patient tumor tissue sections. Additional individual biopsy and normal tissue samples were stained as individual slides. Together, these TMAs and slides represented samples from 73 patients (49 with gynecologic cancer, 22 sections from patients without cancer, and 2 patients with gynecologic cancer tissue and control tissue samples collected). The following gynecologic cancer types were represented in the dataset: endometrial clear cell carcinoma (n=3), endometrial endometrioid carcinoma (n=18), endometrial high-grade serous carcinoma (n =6), endometrial leiomyosarcoma (n=1), endometrial undifferentiated carcinoma (n=1), endometrial undifferentiated sarcoma (n=1), neuroendocrine tumor of the uterus (small cell) (n=1), ovarian carcinosarcoma (n=1), ovarian borderline serous (n=1), ovarian high-grade villoglandular carcinoma (n=1), ovarian high-grade serous carcinoma (n=16), ovarian endometrioid carcinoma (n=1).
Tissue staining with SBK4-TR was described. Positive controls (GBM) and negative controls (Epilepsy) were tested with the TMAs or individual slides. Tumor samples were obtained formalin-fixed and paraffin-embedded. Prior to staining, the TMAs or slides were deparaffinized and blocked with 2% goat serum in phosphate buffered saline (PBS) for 20 min at room temperature (RT). The samples were then incubated with SBK4-TR agent diluted in 2% goat serum in PBS at RT for 1 hr in the dark. Following a PBS rinse, the TMAs or slides were coverslipped with Vectashield Hard Set Mounting Medium (Vector Laboratories, Inc., Burlingame, Calif., USA) and imaged on a Hamamatsu Nanozoomer S60 slide scanner (Bridgewater, N.J., USA). Some samples were also stained for the IDH1 mutation. Tissue staining for both PTPμ was quantified using Image J.

Ends that are not written are not given here. Texas Red = Texas Red fluorescent dye

T2 sequence (P28827 21-1452): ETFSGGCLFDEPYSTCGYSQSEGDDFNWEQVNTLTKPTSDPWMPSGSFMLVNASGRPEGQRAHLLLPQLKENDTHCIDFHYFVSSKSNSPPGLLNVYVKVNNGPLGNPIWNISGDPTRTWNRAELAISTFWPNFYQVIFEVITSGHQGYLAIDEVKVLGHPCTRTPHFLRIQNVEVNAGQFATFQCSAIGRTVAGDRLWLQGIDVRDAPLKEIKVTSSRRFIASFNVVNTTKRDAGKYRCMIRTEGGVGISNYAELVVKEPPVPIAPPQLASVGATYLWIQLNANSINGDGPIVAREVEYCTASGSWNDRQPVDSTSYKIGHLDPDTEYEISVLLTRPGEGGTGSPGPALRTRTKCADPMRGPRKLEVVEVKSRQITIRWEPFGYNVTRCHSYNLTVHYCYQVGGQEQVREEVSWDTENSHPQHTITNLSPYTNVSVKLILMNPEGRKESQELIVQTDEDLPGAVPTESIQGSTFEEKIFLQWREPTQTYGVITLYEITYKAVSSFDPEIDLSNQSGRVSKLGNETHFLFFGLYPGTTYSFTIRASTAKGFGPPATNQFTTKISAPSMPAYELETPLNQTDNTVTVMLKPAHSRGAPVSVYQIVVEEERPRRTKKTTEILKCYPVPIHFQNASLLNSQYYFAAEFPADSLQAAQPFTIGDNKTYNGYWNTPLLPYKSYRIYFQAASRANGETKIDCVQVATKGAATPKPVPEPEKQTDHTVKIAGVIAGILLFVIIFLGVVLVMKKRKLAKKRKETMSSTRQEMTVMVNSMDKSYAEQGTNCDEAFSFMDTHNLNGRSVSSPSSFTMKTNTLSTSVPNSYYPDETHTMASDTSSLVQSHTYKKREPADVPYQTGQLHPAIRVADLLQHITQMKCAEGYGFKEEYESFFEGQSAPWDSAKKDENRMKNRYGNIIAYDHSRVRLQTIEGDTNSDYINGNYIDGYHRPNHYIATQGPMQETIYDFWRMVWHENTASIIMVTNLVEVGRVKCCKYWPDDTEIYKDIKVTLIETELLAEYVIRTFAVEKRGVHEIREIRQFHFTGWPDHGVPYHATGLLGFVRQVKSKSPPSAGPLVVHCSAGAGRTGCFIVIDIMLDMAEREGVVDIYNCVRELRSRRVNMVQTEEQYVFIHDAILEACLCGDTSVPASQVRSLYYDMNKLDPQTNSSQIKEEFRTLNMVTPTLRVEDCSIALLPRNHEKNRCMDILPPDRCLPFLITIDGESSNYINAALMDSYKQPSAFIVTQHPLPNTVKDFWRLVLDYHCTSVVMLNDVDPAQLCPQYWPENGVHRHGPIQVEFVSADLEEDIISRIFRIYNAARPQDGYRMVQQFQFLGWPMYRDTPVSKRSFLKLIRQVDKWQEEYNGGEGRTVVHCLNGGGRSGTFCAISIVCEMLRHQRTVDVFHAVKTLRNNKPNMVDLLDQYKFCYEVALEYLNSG

On to `NCC(=O)CCC(=O)O` [5-ALA, 5-aminolevulinic acid], for which, in the assay on GBM tissue (in vivo), the “labeling the dispersive GBM tumor border” value is recorded as “less effective”. The “six month progression-free survival” value with GBM tissue (surgical resection of GBM) is listed as “improvement”. Moreover, the “extent of tumor resection” value with GBM tissue (surgical resection of GBM, versus 36% with white light alone) was 65%.

For the compound “SBK4-TR: SBK4 peptide (SEQ ID NO: 7) conjugated to Texas Red ({Texas Red}-GIDVRDAPLKEIKVTSSR)”, in assay [1] (formalin-fixed paraffin-embedded glioma samples, fluorescent microscope), the “PTPμ staining of the tumor samples” value is recorded as “variable PTPμ staining”. Moreover, in assay [1] (low- and high-grade glioma tissue), the “labeling of glioma tissue by grade” value was “labels both low- and high-grade glioma tissue”. Also, in the assay with PTPμ biomarker (endometrial endometrioid cancer, high-grade serous endometrial carcinoma, endometrial clear cell carcinoma, small sample sizes), the “SBK4-TR staining of tumor tissue compared to control tissue” value was “did not have statistically significantly higher SBK4-TR staining than control tissue”. In addition, the “staining observed within the TMAs” value with PTPμ biomarker (gynecologic cancer TMAs) is listed as “varied amongst individual patients”. The “SBK4-TR labeling of tumor tissue compared to normal tissue” value in the assay with PTPμ biomarker (high-grade serous ovarian carcinoma vs normal ovary or normal fallopian tube) is recorded as “statistically significantly higher staining”. The “SBK4-TR labeling of PDX tissue compared to original patient tumor tissue” value in the assay with PTPμ biomarker (matched patient tumor and PDX tumors, all samples) is listed as “PDX tissue had higher levels of SBK4-TR labeling than the original patient tumor tissue”. Further, in the assay with PTPμ biomarker (patient with multiple lesions), the “correspondence of sites of high SBK4-TR labeling with p53 and Ki-67 staining” value is “correspond to areas of high p53 and Ki-67 staining”.

These data come from patent US12013397B2, “Compositions and methods for determining cancer prognosis” (CASE WESTERN RESERVE UNIVERSITY, priority 2019, dated 2024).
